This note sets out measurements from article doi:10.1101/2025.08.23.671895, “Detergent-free reconstitution of transmembrane proteins in giant liposomes of complex curvature by the Synthetic Membrane Transfer” (bioRxiv, 2025).

The data set concerns the molecule itself. In words: cryo-EM structure; maltoporin reconstituted in amphipol A8-35 (filaments); 2D classification and 3D reconstruction.

As usually defined, the stoichiometry N is a count of units in the complex or per binding partner.

B1: maltoporin (natural protein, UniProt P02943 26-446, looked up)
chain: VDFHGYARSGIGWTGSGGEQQCFQTTGAQSKYRLGNECETYAELKLGQEVWKEGDKSFYFDTNVAYSVAQQNDWEATDPAFREANVQGKNLIEWLPGSTIWAGKRFYQRHDVHMIDFYYWDISGPGAGLENIDVGFGKLSLAATRSSEAGGSSSFASNNIYDYTNETANDVFDVRLAQMEINPGGTLELGVDYGRANLRDNYRLVDGASKDGWLFTAEHTQSVLKGFNKFVVQYATDSMTSQGKGLSQGSGVAFDNEKFAYNINNNGHMLRILDHGAISMGDNWDMMYVGMYQDINWDNDNGTKWWTVGIRPMYKWTPIMSTVMEIGYDNVESQRTGDKNNQYKITLAQQWQAGDSIWSRPAIRVFATYAKWDEKWGYDYTGNADNNANFGKAVPADFNGGSFGRGDSDEWTFGAQMEIWW
notes: maltoporin, a beta-barrel transmembrane protein; One protein embedded in two polymers (SMA or amphipol A8-35); E. coli LamB is my surmise; also called maltoporin-SMA; maltoporin-Apol; source: purified using DDM-mediated extraction, detergent exchanged with SMA (bio-beads) or amphipol A8-35
Take B1: the “stoichiometry N” value was 3.
